From the DeepSol protein solubility set

Assay: soluble on expression in E. coli; label from the status in PepcDB or PDB records

Sequence	soluble on expression in E. coli
MSLDSKIDILIVVNMFLTGFDSKVLNTLYVDKNLMYHDLIQAYSRTNRVEKESKPFGKIVNYRDLKKETDDALRVFSQTNDTDTILMRSYEEYKKEFMDAYRELKMIVPTPHMVDDIQDEGHHHHHH	not soluble
MSLDSSISDEDTVTVRTAKQVALVVEGQIQNVTTTAVSVEDLLQEVGGITGADAVDADLSETIPESGLEHHHHHH	not soluble
MSLDSSKRQFLQQLGVLTAGASLVPLAEAKFPFSPERHEGSPRHRYAMLIDLRRCIGCQSCTVSCTIENQTPQGAFRTTVNQYQVQREGSQEVTNVLLPRLCNHCDNPPCVPVCPVQATFQREDGIVVVDNKRCVGCAYCVQACPYDARFINHETQTADKCTFCVHRLEAGLLPACVESCVGGARIIGDIKDPHSRIATMLHQHRDAIKVLKPENGTSPHVFYLGLDDAFVTPLMGRAQPALWQEGHHHHHH	not soluble
MSLDSSRIKVVFWHEMKGPGQQAIDAYVKAFNHQQSKYEVVAEFEGGYNGVIQKILNTHGTAASPALFQSMDISTSQMYHSGFTTPMQKFIDRDHYDADQIIPGAKAIVMRDNQLLAMPFNASQTALYYNKRVLRQYGITPPPVDPTYDDITRVAKAIHDKSHGKVKGMTMEAYSWLFEQLVANAGVPVANHDNGHTGNATKVDFTSPAAINAMKWVKENIDYGDFMNFGSGGNAAANEAASFLAGHLGIFMQSSANTGQLYQVLKNDLGVTYFPRPNGQRANGIAVGGAALWIANDKPSAVQDGAWEFTKFLASAQTQADWQAKTGYLAVNKGAKDEPTLKKLFKKSPVLEVSGNQMLRTKPNNTNSGVFVDGWVPARTAIQTAMQQIFAGQDIRQSLQTAENTYNKVLESNNRANGREGHHHHHH	soluble
MSLDVDLAPPGPLAAGGLRVTALGGISEIGRNMTVFEHLGRLLIIDCGVMFPTHDEPGVDLILPDLRHIEDRLDDIEALVLTHAHEDHIGGIPYLLKLRPDIPVVGSKFTLALVAAKCREHRLKPVFVEVSEGHKSTHGVFECEYFAVNHSIPDALAIAVHTGAGTVLHTGDIKLDQLPLDGRPTDLPGMSRLGDAGVDLFLCDSTNAELPGVGPSESEVGPTLHRLIRGAEGRVIVACFASNVDRVQQIIDAAVALGRRVSFVGRSMVRNMGIARELGFLRVADADVIDIGAAELMPPERVVLITTGTQGEPMSALSRMSRGEHRSITLTAGDLVVLASSLIPGNEEAVYGVIDELAKIGARVVTNAQARVHVSGHAYAGELLFLYNGVRPRHVMPVHGTWRMLRANSKLAARTGVPEESILLAENGVSVDLVAGRASISGAVPVGKMFVDGLVDGDVGDITLGERLILSSGFVAVTVVVQRGTGRPVAPPHLHSRGFSEDPKALEPAVRRVEEELEALVAENITDPSRIAQGVRRTVGKWVGETYRRQPMIVPTVIEVEGHHHHHH	soluble
MSLDVLGHVFEYFLGEFALAEGKQGGQFYTPKCVVELLVTMLEPYKGRVFDPCCGSGGMFVQSEEFVKSHQGRLDDISIYGQESNQTTYKLAKMNLAIRKIESSQVIWNNEGSFLNDAHKDLKADFIIANPPFNDSDWSGELLENDGRWKYGVPPASNANYAWIQHFLYHLSPNGGVAGFVLAKGALTSNTTNEAAIRKALIEDDLIDCIVNLPAKLFLNTGIPASLWFIRRQKLPKTVKKTLFIDARDLGTRINRRNKTLNKDDINQIANIYKAWKNGTDYEDIKGFCKSVSIDEIRELSYVLTPGRYVGLADSDDEFDFDTRFNELLAKLKSQIKTEQELSEIILKNLEKIKEGHHHHHH	not soluble
MSLEAIVFDRSEPENVSVKVLDQLLLPYTTKYVPIHTIDDGYSVIKSMQVRGAPAIAIVGSLSVLTEVQLIKHNPTSDVATLYSLVNWESTKTVLNKRLDFLLSSRPTAVNLSNSLVEIKNILKSSSDLKAFDGSLYNYVCELIDEDLANNMKMGDNGAKYLIDVLQKDGFKDEFAVLTICNTGSLATSGYGTALGVIRSLWKDSLAKTDK	soluble
